Measured values reported in patent publication US20190359937A1 (INNOVATIVE TARGETING SOLUTIONS, published 2019).

Assays:
[1] = biological target: T1, HER2 (as used for the affinity measurement) (UniProt P04626 23-652, limits assumed); assay: affinity of the antibody for HER2; estimated to be several hundred nM, method not stated for this antibody
[2] = biological target: T1, HER2 (as used for the affinity …); assay: Biacore, antibody against HER2; format not stated

B1: anti-HER2 antibody ITS001-V928 (antibody, V domains shown)
VH: QVQLVQSGAEVKKPGASVKVSCKASGYTFTSYGISWVRQAPGQGLEWMGWISAYNGNTNYAQKLQGRVTMTTDTSTSTAYMELRSLRSDDTAVYYCARELAYDAFDIWGQGTMVTVSS
VL: not shown
notes: The KD is told of the antibody before it was made into the IgG-TNFR1 receptor; also called ITS001-V928-based antibody; antibody of C644
With B1 the Kd [1] was > 200 nM.

B2: anti-HER2 antibody ITS001-V737 (antibody, V domains shown)
VH: QVQLVQSGAEVKKPGASVKVSCKASGYTFTSYGISWVRQAPGQGLEWMGWISAYNGNTNYAQKLQGRVTMTTDTSTSTAYMELRSLRSDDTAVYYCARELAYDAFDIWGQGTMVTVSS
VL: DIQMTQSPSSLSASVGDRVTITCRASQSISSYLNWYQQKPGKAPKLLIYAASSQAGLSLQSGVPSRFSGSGSGTDFTLTISSLQPEDFATYYCQQSYSTPLTFGGGTKVEIKR
notes: The KD by Biacore is told of the antibody before it was made into the IgG-TNFR1 receptor; also called ITS001-V737-based antibody; antibody of C645
B2 gave a Kd [2] of 107 nM.
